Test [1] has as its target T1, recombinant human TIGIT-His (SinoBiological) (UniProt Q495A1 22-141).
T1 chain: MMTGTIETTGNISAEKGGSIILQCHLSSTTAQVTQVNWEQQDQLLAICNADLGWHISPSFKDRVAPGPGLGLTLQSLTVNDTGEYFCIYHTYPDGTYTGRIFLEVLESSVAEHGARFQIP
Put plainly: Biacore; 25°C. (Surface plasmon resonance follows binding to a sensor surface in real time, without labels.)

The target in test [2] is T1, recombinant human TIGIT-His …. Kind of test: Biacore.
In another test the target is Cynomolgus TIGIT. Put plainly: Biacore.

The Kd is a measure of binding affinity in units of concentration.

B1: 45.3D7.F7 (antibody, V domains shown)
VH: QVQLQQSGPELVKPGASVKISCKASGYGFSGYWMNWVKQGPGKGLEWIGRIFPGDGDTDYNGKLKDKATLTAYKSSSTAYLQLSSLTSEDSAVYFCARWLGGFTSWGQGTLVTVSA
VL: QIVLSQSPAILSASPGEKVTMTCRASASVSYMHWYQQKPGSSPKPWIYATSNLASGVPARFSGSGSGTSYSLTISRVEAEDAATYYCQQWSSDPPTFGAGTKLELK
With B1, the Kd in test [1] was determined as 4.47 nM.

B2: 45.75D4.D3.D9 (antibody, V domains shown)
VH: EVQLQQSGPELVKPGASMKMSCKASGYKFTSYVMHWVKQKPGQGLEWIGYIDPYNDGSKYNEKFKGKATLTSDKSSSIAYMELSSLTSEDSAVFYCARGGSRGWYFDVWGAGTTVTVSS
VL: DIQMTQSPASLSASVGETVTFTCRTNENIYSYLTWYQQKQGKSPQVLVYNAKTLAEGVPSRFSGSGSGTQFSLKINSLQPEDFGSYFCQHHFGNPLTFGAGTKLELK
Turning to B2, in test [1], the Kd was 1.09 nM.

B3: 45.102D4.C12.C6 (antibody, V domains shown)
VH: EVQLQQSGPELVKPGASVKMSCKASGYTFTTYVIHWVKQKPGQGLEWIGYINPYNDGTKYNEKFKVKATLTSDKSSSTAYMELSSLTSEDSAVYYCARSFYVNYGFAYWGQGTLVTVSA
VL: DIVMTQAHKFMSTSVGDRVSITSKASQDVRTAVAWYQQKPGQSPKLLIYSASYRYTGVPDRFTGSGSGADFTFTISSVQAEDLAVYYCQQHYITPWTFGGGTKLEIK
Regarding B3, the Kd in test [1] came out at 1.23 nM.

B4: 45.49H11.H11 (antibody, V domains shown)
VH: EVQLQQSGPELVKPGASVKMSCKTSKYTFTNYVLHWVKQKPGQGLEWIGYINPYNDGTKYNEKFKGKATLTSDKSSSTAYMELSSLTSEDSAVYYCARSYQSNYGFGYWGQGTLVTVSA
VL: DIVMTQSHKFMSTSVGDRVSITCKASQHVSTAVVWYRQIPGQSPKILINSASYRYTGVPDRFTGSGSGTDFTFTISSVQAEDLAVYYCQQHYSIPWTFGGGTKLEIK
Turning to B4, the Kd in test [1] came to 1.04 nM.

B5: hu50C2 HAM (45.50C2.A6) (antibody, V domains shown)
VH: QVQLQESGPGLVKPSETLSLTCTVSGFSLTNYNINWIRQPPGKGLEWIGVIWNGGGTNYNSAFMSRVTISKDTSKNQVSLKLSSVTAADTAVYYCVREAYFSNYGFYFDYWGQGTLVTVSS
VL: DIQMTQSPSSLSASVGDRVTITCSASSSISSNYLHWYQQKPGKAPKLLIYRTSNLASGVPSRFSGSGSGTDFTLTISSLQPEDFATYYCQQGSSIPRTFGGGTKVEIK
For the molecule B5, in test [2], the Kd is 4.17 nM.

B6: hu50C2 (45.50C2.A6) (antibody, V domains shown)
VH: QVQLQESGPGLVKPSETLSLTCTVSGFSLTNYNINWIRQPPGKGLEWIGVIWTGGGTNYNSAFMSRVTISKDTSKNQVSLKLSSVTAADTAVYYCVREAYFSNYGFYFDYWGQGTLVTVSS
VL: DIQMTQSPSSLSASVGDRVTITCSASSSISSNYLHWYQQKPGKAPKLLIYRTSNLASGVPSRFSGSGSGTDFTLTISSLQPEDFATYYCQQGSSIPRTFGGGTKVEIK
Regarding B6, the Kd in test [2] worked out at 1.46 nM.

B7: 45.87B8.H2.H5 (antibody, V domains shown)
VH: DVQLQESGPGLVKPSQSLSLTCTVTGYSITSAYDWHWIRLFPGHILEWMGYISYSGNTIYNPSLKSRISITHDTSKNHFFLKLNSVTTEDTATYYCARGSFWYFDVWGAGTTVTVSS
VL: DIQMTQSPASLSASVGETVTITCRVSEHIYNYLAWYQQKQGKSPQLLVYNAKTLAEGVPSRFSGSGSGTQFSLKINSLQPEDFGTYYCQHNYGNPLTFGAGTKVELK
With B7, the Kd in test [1] was 4.75 nM.

B8: 45.62B12.G5 (antibody, V domains shown)
VH: DVQLQESGPGLVKPSQSLSLTCTVTGYSITSAYDWHWIRHFPGNILEWMGYIRNSGSTNYNPLLKSRISITHDTSQNHFSLKLNSVTTEDTATYYCARGLFWYFDVWGAGTTVTVSS
VL: DIQMTQSPASLSASVGETVTITCRASENIYNYLTWYQQKQGKSPQLLVYNAKTLAEGVPSRFSGSGSGTQFSLKINSLQPEDFGSYYCQHHYGNPLTFGAGTKLELK
In the case of B8, in test [1], the Kd worked out at 0.862 nM.

B9: 45.86C5.C3 (antibody, V domains shown)
VH: DVQLQESGPGLVKPSQSLSLTCTVTGYSITSGYDWHWIRHFPGNILEWMGYISDSGNTIYSPSLKSRISITHDTSKNHFFLKLNSVTSEDTATYYCARGSFWYFDVWGAGTTVTVSS
VL: DIQMTQSPASLSASVGETVTITCRVSENIYSYLAWYQQKQGKSPQLLVYNTKTLAEGVPSRFSGSGSGTQFSLKINSLQPEDFGSYYCQHHYGNPLTFGAGTKLELK
With B9, in test [1], the Kd is 0.784 nM.

B10: hu32B10 HAM (45.32B10.A4) (antibody, V domains shown)
VH: EVQLLESGGGLVQPGGSLRLSCAASGFTFSNYVMSWVRQAPGKGLEWVSTITSGGTYTYYPDSVKGRFTISRDNSKNTLYLQMNSLRAEDTAVYYCTRWLLSLYAMDYWGQGTTVTVSS
VL: DIQMTQSPSSLSASVGDRVTITCRASQDISNFLNWYQQKPGKAVKLLLYYTSRLHSGVPSRFSGSGSGTDYTLTISSLQPEDFATYFCQQFKTYPYTFGGGTKVEIK
As for B10, in test [2], the Kd stood at 0.271 nM.

B11: 32B10 Humanized (Hu) (antibody, V domains shown)
VH: EVQLLESGGGLVQPGGSLRLSCAASGFTFSNYVMSWVRQAPGKGLEWVSTITSGGTYTYYPDSVKGRFTISRDNSKNTLYLQMNSLRAEDTAVYYCTRWLLSLYAMDYWGQGTTVTVSS
VL: DIQMTQSPSSLSASVGDRVTITCRASQDISNFLNWYQQKPGKAVKLLLYYTSRLHSGVPSRFSGSGSGTDYTLTISSLQPEDFATYFCQQGKTYPYTFGGGTKVEIK
As to B11, in the test with Cynomolgus TIGIT, the Kd amounted to 26 nM.

B12: hu32B10 (45.32B10.A4) (antibody, V domains shown)
VH: EVQLLESGGGLVQPGGSLRLSCAASGFTFSNYVMSWVRQAPGKGLEWVSTITSGGTYTYYPDSVKGRFTISRDNSKNTLYLQMNSLRAEDTAVYYCTRWLLSLYAMDYWGQGTTVTVSS
VL: DIQMTQSPSSLSASVGDRVTITCRASQDISNFLNWYQQKPGKAVKLLLYYTSRLHSGVPSRFSGSGSGTDYTLTISSLQPEDFATYFCQQGKTYPYTFGGGTKVEIK
For B12, the Kd in test [2] stood at 1.61 nM.

B13: 32B10 Affinity Matured (HAM) (antibody, V domains shown)
VH: EVQLLESGGGLVQPGGSLRLSCAASGFTFSNYVMSWVRQAPGKGLEWVSTITSGGTYTYYPDSVKGRFTISRDNSKNTLYLQMNSLRAEDTAVYYCTRWLLSLYAMDYWGQGTTVTVSS
VL: DIQMTQSPSSLSASVGDRVTITCRASQDISNFLNWYQQKPGKAVKLLLYYTSRLHSGVPSRFSGSGSGTDYTLTISSLQPEDFATYFCQQFKTYPYTFGGGTKVEIK
The molecule B13 showed a dissociation constant (Kd) with Cynomolgus TIGIT of 6.73 nM.

B14: 45.31G8.E9 (antibody, V domains shown)
VH: QIQLQQSGAELVRPGTSVKMSCKAVGYTFTNYWINWVKQRPGHGFEWIGDIYPGGYYINYNEKFKGKATLTADTSSSTAYMQLSSLTSEDSAIYYCARGYGSYAMDYWGQGTSVTVSS
VL: DIVMTQSQKFMSTSVGDRVSITCKASQNVRTDVVWYQQKPGQSPKALIFLASNRHTGVPDRFTGSGSGTDFTLTISNVQSEDLADYFCLQHWNYPYTFGGGTKLEIK
In the case of B14, the Kd in test [1] came out at 0.776 nM.

B15: 45.32B10.A4 (antibody, V domains shown)
VH: EVQLVESGGVLVKPGGSLKLSCAASGFTFSNYVMSWVRQTPEKRLEWVATITSGGTYTYYPDSVKGRFTISRDNAKNILYLQMSSLRSEDTALYYCTRWLLSLYAMDYWGQGTSVTVSS
VL: DIQMTQTTSSLSASLGDRVTITCRASQDISNFLNWYQQKPDGTVKLLIYYTSRLHSGVPSRFSGSGSGTDYSLTISNLEQEDIATYFCQQGKTYPYTFGGGTKVEIK
On to B15, for which the dissociation constant (Kd) in test [2] and in test [1] was 0.53 nM each time.

B16: 32B10 Original (antibody, V domains shown)
VH: EVQLVESGGVLVKPGGSLKLSCAASGFTFSNYVMSWVRQTPEKRLEWVATITSGGTYTYYPDSVKGRFTISRDNAKNILYLQMSSLRSEDTALYYCTRWLLSLYAMDYWGQGTSVTVSS
VL: DIQMTQTTSSLSASLGDRVTITCRASQDISNFLNWYQQKPDGTVKLLIYYTSRLHSGVPSRFSGSGSGTDYSLTISNLEQEDIATYFCQQGKTYPYTFGGGTKVEIK
B16 returned a Kd with Cynomolgus TIGIT of 8.7 nM.

B17: 45.56F7.A1 (antibody, V domains shown)
VH: EVQLVESGGALVKPGGSLKLSCAASGFTFSNYAMSWVRQTPEKRLEWVATISSGGSYTYYPDSVKGRFTISRDNAKNTLYLQMSSLRSEDTALYYCARWLLSLYAMDYWGQGTSVTVSS
VL: DFQMTQTTSSLSASLGDRVTISCRSSQDISNYLNWYQQKPDGTVKLLIYRTSRLHSGVPSRFSGSGSGTDYSLTISNLEREDIATYFCQQGKTPPYTFGGGTKLEIK
With B17, the Kd in test [1] amounted to 12 nM.

B18: 50C2 Original (antibody, V domains shown)
VH: QVQLKESGPGLVAPSQSLSITCTVSGFSLTNYNINWIRQPPGKGLEWLGVIWTGGGTNYNSAFMSRLSISKDNSKSQVFLKMNRLQTDDTAIYYCVREAYFSNYGFYFDYWGQGTTLTVSS
VL: EIVLTQSPTTMAASPGEKITITCSASSSISSNYLHWYQQKPGFSPKLLIYRTSNLASGVPARFSGSGSGTSYSLTIGTMEAEDVATYYCQQGSSIPRTFGGGTKLEIK
B18: the Kd in the test with Cynomolgus TIGIT was found to be 45.9 nM.

B19: 45.50C2.A6 (antibody, V domains shown)
VH: QVQLKESGPGLVAPSQSLSITCTVSGFSLTNYNINWIRQPPGKGLEWLGVIWTGGGTNYNSAFMSRLSISKDNSKSQVFLKMNRLQTDDTAIYYCVREAYFSNYGFYFDYWGQGTTLTVSS
VL: EIVLTQSPTTMAASPGEKITITCSASSSISSNYLHWYQQKPGFSPKLLIYRTSNLASGVPARFSGSGSGTSYSLTIGTMEAEDVATYYCQQGSSIPRTFGGGTKLEIK
Take B19: the Kd in test [2] and in test [1] was 0.386 nM each time.

B20: 45.32A8.G6 (antibody, V domains shown)
VH: QVQLKESGPGLVAPSHSLSITCTVSGFSLTNYNINWIRQPPGKGLEWLGIIWTGGGTNYNSAFMSTLSINKDNSKSQVFLKMNRMQTDDTTIYYCVRETYFNNYGFYFDYWGQSTTLTVSS
VL: EIVLTQSPTTMAASPGEKITITCSASSSISSNYLHWYQQKPGFSPKLLIYRTSNLASGVPARFSGSGSGTSYSLTIGTMEAEDVATYYCQQGSSIPRTFGGGTKLEIK
As to B20, the Kd in test [1] was 0.428 nM.

The record behind these values is patent US20240425588A1 (published 2024).
